Sequences and labels used below:
B1: FLAG-Atg16L1 full-length (FL) [mouse] / GFP-WIPI2b [not stated] (parent complex)
chain 1: MSSGLRAADFPRWKRHIAEELRRRDRLQRQAFEEIILQYTKLLEKSDLHSVLTQKLQAEKHDMPNRHEISPGHDGAWNDSQLQEMAQLRIKHQEELTELHKKRGELAQLVIDLNNQMQQKDKEIQMNEAKISEYLQTISDLETNCLDLRTKLQDLEVANQTLKDEYDALQITFTALEEKLRKTTEENQELVTRWMAEKAQEANRLNAENEKDSRRRQARLQKELAEAAKEPLPVEQDDDIEVIVDETSDHTEETSPVRAVSRAATKRLSQPAGGLLDSITNIFGLSESPLLGHHSSDAARRRSVSSIPVPQDIMDTHPASGKDVRVPTTASYVFDAHDGEVNAVQFSPGSRLLATGGMDRRVKLWEAFGDKCEFKGSLSGSNAGITSIEFDSAGAYLLAASNDFASRIWTVDDYRLRHTLTGHSGKVLSAKFLLDNARIVSGSHDRTLKLWDLRSKVCIKTVFAGSSCNDIVCTEQCVMSGHFDKKIRFWDIRSESVVREMELLGKITALDLNPERTELLSCSRDDLLKVIDLRTNAVKQTFSAPGFKCGSDWTRVVFSPDGSYVAAGSAEGSLYVWSVLTGKVEKVLSKQHSSSINAVAWAPSGLHVVSVDKGSRAVLWAQP
chain 2: MNLASQSGEAGAGQLLFANFNQDNTSLAVGSKSGYKFFSLSSVDKLEQIYECTDTEDVCIVERLFSSSLVAIVSLKAPRKLKVCHFKKGTEICNYSYSNTILAVKLNRQRLIVCLEESLYIHNIRDMKVLHTIRETPPNPAGLCALSINNDNCYLAYPGSATIGEVQVFDTINLRAANMIPAHDSPLAALAFDASGTKLATASEKGTVIRVFSIPEGQKLFEFRRGVKRCVSICSLAFSMDGMFLSASSNTETVHIFKLETVKEKPPEEPTTWTGYFGKVLMASTSYLPSQVTEMFNQGRAFATVRLPFCGHKNICSLATIQKIPRLLVGAADGYLYMYNLDPQEGGECALMKQHRLDGSLETTNEILDSASHDCPLVTQTYGAAAGKGTYVPSSPTRLAYTDDLGAVGGACLEDEASALRLDEDSEHPPMILRTD
B2: FLAG-Atg16L1 full-length (FL) [mouse] / endogenous FIP200 (HEK293A) [human (endogenous in HEK293A)] (parent complex)
chain 1: B1 chain 1
chain 2: MKLYVFLVNTGTTLTFDTELTVQTVADLKHAIQSKYKIAIQHQVLVVNGGECMAADRRVCTYSAGTDTNPIFLFNKEMILCDRPPAIPKTTFSTENDMEIKVEESLMMPAVFHTVASRTQLALEMYEVAKKLCSFCEGLVHDEHLQHQGWAAIMANLEDCSNSYQKLLFKFESIYSNYLQSIEDIKLKLTHLGTAVSVMAKIPLLECLTRHSYRECLGRLDSLPEHEDSEKAEMKRSTELVLSPDMPRTTNESLLTSFPKSVEHVSPDTADAESGKEIRESCQSTVHQQDETTIDTKDGDLPFFNVSLLDWINVQDRPNDVESLVRKCFDSMSRLDPRIIRPFIAECRQTIAKLDNQNMKAIKGLEDRLYALDQMIASCGRLVNEQKELAQGFLANQKRAENLKDASVLPDLCLSHANQLMIMLQNHRKLLDIKQKCTTAKQELANNLHVRLKWCCFVMLHADQDGEKLQALLRLVIELLERVKIVEALSTVPQMYCLAVVEVVRRKMFIKHYREWAGALVKDGKRLYEAEKSKRESFGKLFRKSFLRNRLFRGLDSWPPSFCTQKPRKFDCELPDISLKDLQFLQSFCPSEVQPFLRVPLLCDFEPLHQHVLALHNLVKAAQSLDEMSQTITDLLSEQKASVSQTSPQSASSPRMESTAGITTTTSPRTPPPLTVQDPLCPAVCPLEELSPDSIDAHTFDFETIPHPNIEQTIHQVSLDLDSLAESPESDFMSAVNEFVIEENLSSPNPISDPQSPEMMVESLYSSVINAIDSRRMQDTNVCGKEDFGDHTSLNVQLERCRVVAQDSHFSIQTIKEDLCHFRTFVQKEQCDFSNSLKCTAVEIRNIIEKVKCSLEITLKEKHQKELLSLKNEYEGKLDGLIKETEENENKIKKLKGELVCLEEVLQNKDNEFALVKHEKEAVICLQNEKDQKLLEMENIMHSQNCEIKELKQSREIVLEDLKKLHVENDEKLQLLRAELQSLEQSHLKELEDTLQVRHIQEFEKVMTDHRVSLEELKKENQQIINQIQESHAEIIQEKEKQLQELKLKVSDLSDTRCKLEVELALKEAETDEIKILLEESRAQQKETLKSLLEQETENLRTEISKLNQKIQDNNENYQVGLAELRTLMTIEKDQCISELISRHEEESNILKAELNKVTSLHNQAFEIEKNLKEQIIELQSKLDSELSALERQKDEKITQQEEKYEAIIQNLEKDRQKLVSSQEQDREQLIQKLNCEKDEAIQTALKEFKLEREVVEKELLEKVKHLENQIAKSPAIDSTRGDSSSLVAELQEKLQEEKAKFLEQLEEQEKRKNEEMQNVRTSLIAEQQTNFNTVLTREKMRKENIINDLSDKLKSTMQQQERDKDLIESLSEDRARLLEEKKKLEEEVSKLRSSSFVPSPYVATAPELYGACAPELPGESDRSAVETADEGRVDSAMETSMMSVQENIHMLSEEKQRIMLLERTLQLKEEENKRLNQRLMSQSMSSVSSRHSEKIAIRDFQVGDLVLIILDERHDNYVLFTVSPTLYFLHSESLPALDLKPGEGASGASRRPWVLGKVMEKEYCQAKKAQNRFKVPLGTKFYRVKAVSWNKKV
B3: GFP-WIPI2b [not stated] / FLAG-Atg16L1 full-length (FL) [mouse] (parent complex)
chain 1: B1 chain 2
chain 2: B1 chain 1
B4: GFP-WIPI2b [not stated] / FLAG-Atg16L1 full-length (FL) [mouse] (parent complex)
chain 1: B1 chain 2
chain 2: B1 chain 1

The variants in one assay derive from B1. Kind of assay: GFP-Trap co-immunoprecipitation from mixed lysates, immunoblot quantification; parent: 1; read off a plot.
As to chain 1 E230R, the ratio to parent is about 0.02.

With chain 1 D239R, the ratio to parent was about 0.8.

Take chain 1 E235R: the ratio to parent was about 1.2.

Take chain 1 D238R: the ratio to parent was about 1.3.

Consider chain 1 E226R, for which the ratio to parent was about 0.02.

Regarding chain 1 D237R, the ratio to parent is about 1.7.

As to chain 1 E208R, the ratio to parent is about 0.67.

Take chain 1 E241R: the ratio to parent was about 1.1.

On to chain 1 D212R, for which the ratio to parent was about 0.63.

In another assay the parent is B2. Kind of assay: FLAG immunoprecipitation, immunoblot quantification; parent: 1; read off a plot. (In general: Immunoblotting shows a protein as a band on a membrane.)
Take chain 1 E235R: the ratio to parent is about 0.7.

chain 1 D212R: the ratio to parent is about 1.2.

Consider chain 1 D239R, for which the ratio to parent was about 0.3.

Turning to chain 1 E208R, the ratio to parent was about 1.3.

chain 1 D238R: the ratio to parent was about 0.42.

As to chain 1 D237R, the ratio to parent is about 0.45.

With chain 1 E226R, the ratio to parent was about 2.1.

Turning to chain 1 E230R, the ratio to parent was about 2.9.

Consider chain 1 E241R, for which the ratio to parent is about 0.25.

The variants in another assay derive from B3. The assay is described as follows: GFP-Trap co-immunoprecipitation from mixed lysates, immunoblot quantification; parent: 2.5; read off a plot.
Take chain 2 E230R: the response is about 0.62.

As to chain 2 E226R, the response is about 0.33.

Turning to chain 2 E226R, chain 2 E230R, the response was about 0.02.

Variants of B4 are the subject of the next assay. The description is as above.
In the case of chain 1 R108E, the response was about 0.04.

As for chain 1 R125E, the response was about 1.6.

Turning to chain 1 R108E, chain 1 R125E, the response was about 0.03.

The values above are taken from paper PMC4104028 (2014).
